According to patent publication US11981713B2, “Method for manufacturing a stable emulsion for peptide delivery” (OSE IMMUNOTHERAPEUTICS, priority 2017, dated 2024):

Columns and labels:
Assay type in all cases: physicochemical
[1] = Peptide concentration in emulsions prepared with different stirring times; conditions: initial concentration in emulsion
Description: Emulsions according to this invention were prepared as described in Example 5, using different stirring times.

[2] = Chemical stability of the emulsion (peptide content by LC/MS); conditions: for Content after 2 month at 5° C.: emulsion of Example 5, 2 month at 5° C.; for Content after 2 month at 25° C.: emulsion of Example 5, 2 month at 25° C.; for Content after 2 month at −20° C.: emulsion of Example 5, 2 month at −20° C.; for Initial content: emulsion of Example 5, initial
Description: The chemical stability of the peptides contained in the emulsion prepared according to Example 5 is assessed by means of the following method.
A sample of 0.9 g of the emulsion of Example 5 is accurately weighted and mixed with 0.1% TFA in DMSO so as to fill a 5 mL volumetric flask. The mixture is then vortexed for 2 minutes and centrifuged for 7 minutes at 4000 rpm. The lower layer is then analyzed by Liquid Chromatography/Mass Spectroscopy (LC/MS) using the following chromatographic conditions:
Column: Advance Bio Peptide Mapping LC column, 2.1×250 mm, 2.7 μm, C18, 120 Å, Agilent® reference n° 651750-902 or equivalent
Column temperature: 35° C.±2° C.
Sample temperature: 5° C.
Needle wash: 0.1% Trifluoroacetic acid (TFA) in dimethylsulfoxide (DMSO)
Mobile phase: Eluent A: 0.2% TFA in 5% acetonitrile
• Eluent B: 0.2% TFA in 95% acetonitrile Gradient table: […]
A standard solution is prepared by transferring 0.9 mL of the batch suspension described in Example 1 with 1.1 mL of Montanide ISA 51 in a 10.0 mL volumetric flask, then vortexing and centrifuging the mixture as described above. The lower layer thus obtained is analyzed in the same conditions as above.
The concentration of each peptide is expressed in mg/g using the formula:
[formula] where: A: is the peak area of each peptide in the sample solution S: is the peak area of each peptide in the standard solution W: is the sample weight expressed in g

[3] = Comparative experiment: emulsion made with high shear mixer, consistency and peptide oxidation; conditions: high shear mixer batches at 5000 and 8000 rpm
Description: The suspension prepared as described in Example 1 was mixed with the same adjuvant, in the same ratio, except that mixing was conducted by means of a high shear mixer (Silverson® Verso) having a rotor-stator configuration. […] Other batches obtained with the same mixer at 5000 and 8000 rpm led to peptide degradation. Specifically, 8.5% oxidation of peptide […] (SEQ ID NO: 5) was noted after 6 weeks storage at 4° C. and still 2% oxidation at −20° C.

## IMIGHLVGV [MPS-214]
[1]; stirring time 5 minutes
  Concentration: 530 µg/mL
[1]; stirring time 10 minutes
  Concentration: 530 µg/mL
[1]; stirring time 15 minutes
  Concentration: 530 µg/mL
[2]
  Content after 2 month at 5° C.: 0.51 mg/g
  Content after 2 month at 25° C.: 0.50 mg/g
  Content after 2 month at −20° C.: 0.51 mg/g
  Initial content: 0.53 mg/g
[3]; after 6 weeks storage at 4° C.
  oxidation: 16.5%
[3]; storage at −20° C.
  oxidation: 4%

## KLBPVQLWV [MPS-102]
[1]; stirring time 5 minutes
  Concentration: 560 µg/mL
[1]; stirring time 10 minutes
  Concentration: 570 µg/mL
[1]; stirring time 15 minutes
  Concentration: 560 µg/mL
[2]
  Content after 2 month at 5° C.: 0.55 mg/g
  Content after 2 month at 25° C.: 0.55 mg/g
  Content after 2 month at −20° C.: 0.55 mg/g
  Initial content: 0.57 mg/g

## LLTFWNPPV [MPS-213]
[1]; stirring time 5 minutes
  Concentration: 560 µg/mL
[1]; stirring time 10 minutes
  Concentration: 560 µg/mL
[1]; stirring time 15 minutes
  Concentration: 560 µg/mL
[2]
  Content after 2 month at 5° C.: 0.54 mg/g
  Content after 2 month at 25° C.: 0.54 mg/g
  Content after 2 month at −20° C.: 0.55 mg/g
  Initial content: 0.56 mg/g

## RLLQETELV [MPS-112]
[1]; stirring time 5 minutes
  Concentration: 560 µg/mL
[1]; stirring time 10 minutes
  Concentration: 570 µg/mL
[1]; stirring time 15 minutes
  Concentration: 560 µg/mL
[2]
  Content after 2 month at 5° C.: 0.55 mg/g
  Content after 2 month at 25° C.: 0.55 mg/g
  Content after 2 month at −20° C.: 0.55 mg/g
  Initial content: 0.57 mg/g

## SMPPPGTRV [MPS-103]
[1]; stirring time 5 minutes
  Concentration: 530 µg/mL
[1]; stirring time 10 minutes
  Concentration: 560 µg/mL
[1]; stirring time 15 minutes
  Concentration: 540 µg/mL
[2]
  Content after 2 month at 5° C.: 0.54 mg/g
  Content after 2 month at 25° C.: 0.54 mg/g
  Content after 2 month at −20° C.: 0.55 mg/g
  Initial content: 0.55 mg/g
[3]; after 6 weeks storage at 4° C.
  oxidation: 8.5%
[3]; storage at −20° C.
  oxidation: 2%

## YLSGADLNL [MPS-200]
[1]; stirring time 5 minutes
  Concentration: 570 µg/mL
[1]; stirring time 10 minutes
  Concentration: 570 µg/mL
[1]; stirring time 15 minutes
  Concentration: 570 µg/mL
[2]
  Content after 2 month at 5° C.: 0.56 mg/g
  Content after 2 month at 25° C.: 0.55 mg/g
  Content after 2 month at −20° C.: 0.56 mg/g
  Initial content: 0.58 mg/g

## aKXVAAWTLKAAa [MPS-7, peptide with X and a respectively indicating cyclohexylalanine and d-alanine]
[1]; stirring time 5 minutes
  Concentration: 580 µg/mL
[1]; stirring time 10 minutes
  Concentration: 580 µg/mL
[1]; stirring time 15 minutes
  Concentration: 570 µg/mL
[2]
  Content after 2 month at 5° C.: 0.56 mg/g
  Content after 2 month at 25° C.: 0.56 mg/g
  Content after 2 month at −20° C.: 0.56 mg/g
  Initial content: 0.58 mg/g
